For 167 variants, self-cleavage results are on record in the RNAGym collection of RNA variant scans (doi:10.7554/elife.80360).

The chains are these.
B1: HDV Ribozyme (parent)
chain: GGCCGGCAUGGUCCCAGCCUCCUCGCUGGCGCCGGCUGGGCAACAUUCCGAGGGGACCGUCCCCUCGGUAAUGGCGAAUGGGACCCA

Variants of B1 are the subject of this series. The series is described as follows: self-cleavage, relative activity (ratio to wild type); higher = more cleavage; co-transcriptional.
In the case of C58A C61A, the self-cleavage turned out to be 1.23. On to C58A A78G, for which the self-cleavage was determined as 0.697. For C58A A78C, the self-cleavage was found to be 0.108. As for G59U C64U, the figure is 1.05; as for G59U C64G, 1.13; as for C57U C64U, 0.845. On to G59C C86U, for which the self-cleavage came out at 1.01. As to G59C C86G, the self-cleavage is 1.06. As for G59C C86A, the figure is 0.914; as for G59C U79C, 0.431. Turning to G59C U79G, the self-cleavage turned out to be 0.712. For the variant G59C U79A, the self-cleavage was 0.987. Regarding C58U G81U, the self-cleavage is 0.289. The same measure for C58U G81C: 0.31; for C58U G81A: 0.584. For the variant C58U G80U, the self-cleavage was 0.132. On to C58U A77U, for which the self-cleavage worked out at 0.68.

Turning to C58U A77G, the self-cleavage came out at 0.929. Consider C58G A78U, for which the self-cleavage came out at 0.277. As to C58G A78G, the self-cleavage came out at 0.723. C58U C61A: the self-cleavage amounted to 1.21. Take C58U C61U: the self-cleavage worked out at 0.954. Turning to G59C G73C, the self-cleavage came out at 0.575. In the case of C58A A71C, the self-cleavage came to 0.831. In the case of C58A A71U, the self-cleavage stood at 1.05. With C58U U72A, the self-cleavage was found to be 0.58.

For the variant C58U U72G, the self-cleavage was determined as 0.431.

Consider C58U U72C, for which the self-cleavage turned out to be 0.415.

As for C57G U60G, the self-cleavage is 0.95. For C57U C62U, the self-cleavage was 0.799.

As to C57U C62G, the self-cleavage was found to be 1.25.

G59A G80C: the self-cleavage worked out at 0.226. C57U G82U: the self-cleavage was 0.234.

In the case of C57G U79G, the self-cleavage stood at 0.506. For G59U G81A, the self-cleavage amounted to 0.361. On to G59U G81C, for which the self-cleavage amounted to 0.223. Turning to G59U C84U, the self-cleavage worked out at 0.865.

As for G59U C84G, the self-cleavage was determined as 0.731. As for C58G C84U, the figure is 0.721; as for C57U U72G, 0.587; as for C58A G68U, 1.04. C58U C62A: the self-cleavage is 0.969. In the case of C58U C62U, the self-cleavage was determined as 0.867.

On to C58A U65C, for which the self-cleavage amounted to 1.19.

Regarding G59U G76U, the self-cleavage stood at 1.08. For C58A C64A, the self-cleavage was 0.962. On to G59C C61G, for which the self-cleavage was 0.927. The same measure for G59C C61A: 0.969; for G59C C61U: 1.01. As for C58U A70C, the figure is 0.831; as for C58U A70U, 1.29; as for C58U A70G, 1.01. As for G59C C75G, the self-cleavage came to 0.189. G59C C75U: the self-cleavage worked out at 0.233. C58U G59U: the self-cleavage was 1.05. On to C58U U79A, for which the self-cleavage stood at 1.07. The same measure for G59C C64A: 0.946; for G59C C64G: 0.892. For the variant C58G A83G, the self-cleavage is 0.633. For the variant C58G A83C, the self-cleavage amounted to 0.386.

On to C58G A83U, for which the self-cleavage was determined as 0.776. As for G59A C75U, the self-cleavage was 0.159.

With G59A C75G, the self-cleavage worked out at 0.177. Consider G59A C75A, for which the self-cleavage was 0.163. The same measure for C58A G76C: 1.1; for C58A G76U: 1.05; for C58G A87G: 0.874.

As for C57U A83G, the self-cleavage is 0.808.

For the variant G59A G76U, the self-cleavage was 1.21. G59A G76C: the self-cleavage came out at 0.854. The same measure for G59C C85G: 0.955; for G59C C85A: 0.937. Take C58A U79A: the self-cleavage turned out to be 0.789. With C58A A70U, the self-cleavage came out at 1.

Regarding C57U G73A, the self-cleavage was found to be 0.891. Consider C57U U65C, for which the self-cleavage amounted to 0.895.

In the case of G59U A77U, the self-cleavage worked out at 0.47.

Regarding G59U A77C, the self-cleavage is 0.453. For the variant C57U A78G, the self-cleavage came to 0.639. With C57U A78U, the self-cleavage came to 0.119. Take C57G C85G: the self-cleavage was found to be 1.09. On to C57G C85A, for which the self-cleavage was determined as 0.935. For the variant C57G G80A, the self-cleavage was 0.208. For G59C G80U, the self-cleavage amounted to 0.244. As for C57U G80A, the figure is 0.148. As for C57G C62U, the self-cleavage was 1.03. C57G C62G: the self-cleavage worked out at 0.87. The same measure for G59U U65G: 0.914.

On to G59U U65A, for which the self-cleavage was 0.912. For C58A C84U, the self-cleavage came out at 0.919. In the case of C58A C84A, the self-cleavage was 0.644. With C58A C84G, the self-cleavage is 0.764. As to G59C A70C, the self-cleavage is 1.07. Regarding G59C A70U, the self-cleavage stood at 1.03. On to C58G U79A, for which the self-cleavage was 0.571. With C58G U60A, the self-cleavage stood at 1.06. Consider G59U C62U, for which the self-cleavage stood at 1.07.

With G59U C62A, the self-cleavage turned out to be 0.831. Consider G59U C62G, for which the self-cleavage amounted to 0.748. The same measure for C58U G67A: 0.909.

For the variant G59C G74A, the self-cleavage was 0.635. Take G59C G74C: the self-cleavage is 0.0678. Regarding C58A A83G, the self-cleavage is 0.707. The same measure for C58A A83C: 0.723; for G59C C66G: 1.14.

Turning to G59A A70G, the self-cleavage stood at 1.2. Take G59A A70U: the self-cleavage worked out at 0.941.

Consider C57G C75U, for which the self-cleavage is 0.271. On to C57G C75A, for which the self-cleavage was found to be 0.287. Turning to C57G C75G, the self-cleavage was found to be 0.185. On to C57U C61G, for which the self-cleavage amounted to 0.967.

Regarding C58U C75A, the self-cleavage is 0.095.

On to C58U C75U, for which the self-cleavage was determined as 0.302.

As to G59C A71G, the self-cleavage is 0.831. Take G59C A71C: the self-cleavage stood at 0.677. Take C58G C66U: the self-cleavage worked out at 1.01. As for C57U G74A, the self-cleavage was 0.501. As for C57U G74C, the figure is 0.208; as for G59A G81C, 0.228. Take G59A G81U: the self-cleavage is 0.249.

As to C58U A83C, the self-cleavage was found to be 0.403. As to C58U A83U, the self-cleavage worked out at 0.453. Regarding C58U A83G, the self-cleavage worked out at 0.681.

For the variant C58A G81C, the self-cleavage was 0.128. Turning to C58A G81U, the self-cleavage came to 0.397. As to G59A A87G, the self-cleavage worked out at 1.04.

Turning to G59A A87C, the self-cleavage is 0.974. The same measure for C57G U65C: 0.96; for C57G U65A: 1.11.

Regarding G59U C66G, the self-cleavage was 0.981. As for C57U C58A, the self-cleavage is 1.13. With G59C U69G, the self-cleavage amounted to 1.11. Take G59C U69A: the self-cleavage amounted to 1.27. As for G59C A77C, the self-cleavage is 0.101. For the variant G59C G76C, the self-cleavage came out at 1.19. As for G59C G76A, the figure is 0.767. On to G59A G74U, for which the self-cleavage came to 0.561. The same measure for C57U C85A: 0.698. For C57U C85U, the self-cleavage came out at 1.11. C58A G59C: the self-cleavage came to 0.904.

Consider C58A G59A, for which the self-cleavage was 1.1.

For C58U G74A, the self-cleavage was 0.462.

Consider G59C U60G, for which the self-cleavage worked out at 1.16. For the variant C58G A71U, the self-cleavage came out at 0.779. As for C58G A71G, the figure is 1.07; as for C58A G73C, 0.68; as for C58A G73U, 0.383. For G59A A77G, the self-cleavage amounted to 0.867.

Regarding G59C G82C, the self-cleavage is 0.522. Consider C58G G73A, for which the self-cleavage was 0.406. Turning to C58G C64G, the self-cleavage amounted to 0.853. Turning to G59U G74A, the self-cleavage turned out to be 0.46. As for G59U G74U, the figure is 0.502. As for G59U G74C, the self-cleavage worked out at 0.271.

As to G59A A71C, the self-cleavage turned out to be 0.743.

For the variant C57U A77C, the self-cleavage was 0.415.

In the case of G59A A83G, the self-cleavage was determined as 0.748. Consider G59A A83U, for which the self-cleavage was 0.59. In the case of G59A A83C, the self-cleavage came out at 0.554. The same measure for C58U C66U: 0.911; for C58U C66A: 1.22. Regarding C58G C86U, the self-cleavage amounted to 1.25. Consider C57U A70G, for which the self-cleavage worked out at 0.967. Turning to C58G C62U, the self-cleavage came out at 0.73.

Turning to C58G C62G, the self-cleavage came out at 0.639. Consider C58U G73A, for which the self-cleavage came out at 0.7. As for G59U G80A, the figure is 0.295.
